Reference: patent publication US20210206842A1 (NATIONAL RESEARCH COUNCIL OF CANADA, published 2021)

Columns and labels:
[1] = biological target: T1, FC5DIE3IR recombinant protein; experiment: phage ELISA, phage supernatant on coated FC5DIE3IR or PBS wells, anti-M13-HRP, TMB
T1 construct: Made in CHO-3E7 cells; also called FC5DIE31R; FC5DIE3R
Description: FIG. 25A Phages were rescued from individual colonies, selected from the fourth round of panning and grown overnight at 37° C. Wells of a Nunc microtiter plate were coated with FC5DIE3IR and FC5 proteins at 5 μg/ml in PBS. […] Binding was detected with TMB substrate and A450 was measured using an ELISA plate reader.
Additional rounds (up to 3) of panning were performed by coating the ELISA plate with the same proteins and using the amplified phages after each round of panning as described above. After four rounds of panning, 77 randomly picked colonies were grown and subjected to monoclonal phage ELISA screening as described previously (Arbabi-Ghahroudi et al., 2009) except that 5 μg/ml of FC5DIE3IR and FC5 VHH (the negative control) were coated onto a microtiter plate. All positive clones specifically binding to FC5DIE3IR were sequenced and unique VHH sequences were selected for sub-cloning, large-scale expression, and purification.

human Nav1.7 polypeptide = human Nav1.7 polypeptide (human, UniProt Q15858 1-1988); experiment: cell-based or functional assay
VHH FC5 [2] = biological target: T2, VHH FC5; experiment: phage ELISA of immune-library colonies, phage supernatant on coated FC5DIE3IR or FC5, anti-M13-HRP, TMB
T2 construct: put together from its FR and CDR entries; also called FC5-VHH; FC5 control
T2 sequence (VHH, as listed by the source): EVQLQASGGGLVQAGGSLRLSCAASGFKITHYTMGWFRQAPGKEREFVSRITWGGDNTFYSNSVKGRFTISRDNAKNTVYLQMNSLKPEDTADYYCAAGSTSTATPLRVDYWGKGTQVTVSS

[3] = biological target: T1, FC5DIE3IR recombinant protein; experiment: SPR (Biacore T200), single cycle kinetics, VHH flowed over immobilized FC5DIE3IR, 25 C
Text: (§1) Surface Plasmon Resonance for VHH antibodies. […] Monomeric VHH fractions were collected and protein concentration determined by measuring A280 measurement. Using a Biacore T200 instrument (GE Healthcare), approximately 500-1000 RUs of FC5DIE3IR, FC5 and an irrelevant VHH (2A3-H4) were immobilized on a CM5 Series S sensor chip (GE Healthcare) at pH 4.0 using standard amine coupling according to the manufacturer's instructions (GE Healthcare). […] Surfaces were regenerated by washing with a 120 s pulse of 10 mM glycine pH 1.5. Data were analyzed with Biacore T200 Software v 3.0 and affinities determined using steady state binding or a 1:1 binding model.
(§2) Surface Plasmon Resonance (SPR).

[4] = biological target: T1, FC5DIE3IR recombinant protein; experiment: SPR (Biacore T200), VHH flowed over immobilized FC5DIE3IR, steady state fit, 25 C
Text: as §1, §2

VHH FC5 [5] = biological target: T2, VHH FC5; experiment: phage ELISA of immune-library colonies, phage supernatant on coated FC5DIE3IR or FC5, anti-M13-HRP, TMB; remark: listed apart in the source
VHH FC5 [6] = biological target: T2, VHH FC5; experiment: SPR, single cycle kinetics, Fc-captured mAb, FC5 flowed, 25 C
Description: HBS-EP running buffer used for SPR experiments. […] Test binding experiments of FC5 control and FC5DIE3IR involved flowing 1 μM concentrations of SEC-pure material over the mAb surface at a flow rate of 30 μl/min for 5 min. Surfaces could be regenerated using 10 mM glycine, pH 1.7, with a 120 sec pulse at 20 μl/min. All SPR experiments were evaluated with Biacore T200 Software v 3.0. […] Regeneration conditions were the same as above. Data were fit to a 1:1 binding model and analyzed using the Biacore T200 Software v3.0.

VHH FC5 [7] = biological target: T2, VHH FC5; experiment: ELISA, hybridoma supernatant on coated purified FC5-VHH
Description: (§3) Screening. Hybridoma supernatants were screened by ELISA to detect specific binders. To this end, 96-well half-area plates (Costar #3690) were coated with 25 μl of FC5DIE3IR or FC5-VHH or FC5-hFc-1X0 at 5 μg/ml in PBS and incubated overnight at 4° C. Microplates were washed 3 times with PBS, blocked with PBS-BSA 1%, and 25 μl of hybridoma supernatants were added and incubated at 37° C., 5% CO₂ for 2 hours. […] After 4 washes with PBS-Tween 20 0.05%, 25 μl of a 1 mg/ml pNPP substrate solution was added and further incubated for one hour at 37° C.

[8] = biological target: T1, FC5DIE3IR recombinant protein; experiment: ELISA on coated FC5DIE3IR, serial dilutions of purified mAb; fit One site - Specific binding with Hill slope
Description: as §3
(§4) Evaluation of apparent affinity in ELISA. Purified antibodies were assessed for their binding activity by ELISA in a dose-dependent binding curve. Serial 1/3 dilutions of purified mAbs starting at 120 nM were applied onto wells and ELISA was performed as described above (screening section). The data were analyzed with GraphPad Prism software using one-site specific binding-with Hill slope non-linear regression curve fit model to determine Bₘₐₓ (maximum specific binding) and Kdₐₚₚ (concentration needed to achieve a half-maximum binding at equilibrium) for each mAb tested.

[9] = biological target: T1, FC5DIE3IR recombinant protein; experiment: ELISA on coated FC5DIE3IR, serial dilutions of purified mAb, OD 405 nm; fit One site - Specific binding with Hill slope; apparent Kd in the unit of the concentration axis (nM), the table itself prints no unit
Description: as §3, §4

peptide #40a (40 aa) = biological target: T3, peptide #40a (40 aa) (human); experiment: ELISA on coated peptide or FC5DIE3IR, mAb detected with HRP anti-mouse Fc, Abs 450nm
T3 construct: Custom-synthesized (Biomatik); also called pep #40a; P40a
T3 peptide: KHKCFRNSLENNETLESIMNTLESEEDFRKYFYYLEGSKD
Description: (§5) The peptides were custom-synthesized (Biomatik) and tested for antibody binding by ELISA. […] The wells were blocked with 1% BSA in TBS-T for 30 min and then incubated with 1:1000 dilution of anti-hNaᵥ1.7 mAb at room temperature (RT) for one hr.

peptide #3 (30 aa) = biological target: T4, peptide #3 (30 aa) (human); experiment: as above
T4 construct: Custom-synthesized (Biomatik); also called pep #3; P3
T4 sequence (peptide, as listed by the source): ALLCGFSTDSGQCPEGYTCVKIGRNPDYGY
Description: as §5

peptide #2b (20 aa) = biological target: T5, peptide #2b (20 aa) (human); experiment: ELISA on coated P2b, mAb at the dilutions 1:1000, 1:5000 and 1:10000, Abs 450nm
T5 construct: Custom-synthesized (Biomatik); also called pep #2b; P2b
T5 peptide: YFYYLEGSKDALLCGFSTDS
Description: as §5

peptide #2a (20 aa) = biological target: T6, peptide #2a (20 aa) (human); experiment: ELISA on coated P2a, mAb at the dilutions 1:1000, 1:5000 and 1:10000, Abs 450nm
T6 construct: Custom-synthesized (Biomatik); also called pep #2a; P2a
T6 peptide: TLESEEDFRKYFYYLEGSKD
Description: as §5

peptide #2 (30 aa) = biological target: T7, peptide #2 (30 aa) (human); experiment: ELISA on coated peptide or FC5DIE3IR, mAb detected with HRP anti-mouse Fc, Abs 450nm
T7 construct: Custom-synthesized (Biomatik); also called pep #2; P2
T7 peptide: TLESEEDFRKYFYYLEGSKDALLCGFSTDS
Description: as §5

B1: VHH DI-C (VHH)
VHH: QVKLEESGGGLVQPGESLRLSCVGSGFNFRIQAMAWFRQAPGKEREFVASISGSGATTDHADSVKGRFAISKDNARDTMYLQMNNLKPEDTAVYYCYAISQHVPPYHYWGQGTQVTVSS
notes: From the naive LAC-M library; soluble tagged monomer in protein ELISA and patch clamp; also called clone C; not shown: 6xHis and c-Myc tags on the soluble monomer
For B1, the binding result [1] was “binds” and the “reduction of the amplitude of the Nav1.7 currents at 1 µM” value (from here on “reduction”) (human Nav1.7 polypeptide) was 0.46%.

B2: VHH DI-28 (VHH)
VHH: QVQLVESGGGLVQAGGSLRLSCAASGRTFSSSGMGWFRQAPGKDRELVAGISWSGDSAYYANSVAGRFTISRDNINNTVYLQMNSLKPEDTAVYYCAARQGGRNYATSPREYDYWGQGTQVTVSS
notes: From the FC5DIE3IR llama immune library; soluble tagged monomer in SPR; not shown: cmyc and His6 tags at the C-terminus
B2 was tested, and the binding result (VHH FC5 [2]) was “no binding”, the Kd [3] was 4.44 nM and the koff [3] was 0.00205 s⁻¹. For the same binder, the kon [3] was 461000 M⁻¹ s⁻¹.

B3: VHH DI-E (VHH)
VHH: QVKLEESGGGLVQPGGSLRLSCAASEFTFSSSWGHWVRQAPGKGLKWVSSINSGGEGTYYADSVKGRFTISRDNGKNTLYLEMNSLKSEDTAVYYCTSASGAWGQGIQVTVSS
notes: From the naive LAC-M library; also called clone E; not shown: 6xHis and c-Myc tags on the soluble monomer
B3: binds [1].

B4: VHH DI-4 (VHH)
VHH: QVQLVESGGGLVQPGGSLRLSCAASGFTFSNYWMYWVRQAPGKGLERVSSIYISGGNTYYADSVKGRFTISRDNAKNTLYLQMNSLKSEDTAVYYCVKGDTFGGMDYWGKGTQVTVSS
notes: as for B2
With B4 the Kd [4] was 2250 nM and the binding result (VHH FC5 [5]) was “no binding”.

B5: VHH DI-H (VHH)
VHH: QVKLEESGGGLVQAGESLRLSCVNSGSTFSIYAMGWYRQAPGKQRELVAAISSVGRTNYADSVKGRFTISRAGAKNTVYLHMNNLKPEDTAVYSCITYYQNAMYFGQGTQVTVSS
notes: From the naive LAC-M library; soluble tagged monomer in protein ELISA and patch clamp; also called clone H; not shown: 6xHis and c-Myc tags on the soluble monomer
B5 was tested, and the binding result [1] was “binds” and the “reduction” value (human Nav1.7 polypeptide) was 1.72%.

B6: anti-hNav1.7 mAb 1H5 (antibody, V domains shown)
VH: EVKLVESGGGLVKPGGSLKLSCAASGFTFRSYAMSWVRQTPEKGLEWVASISSGGSTYYPDSVKGRFTISRDNAGNILYLQMSSLRSEDTAMYYCARGYDGYYERIWYYAMDYWGQGTSVTVSS
VL: DIVMTQSQKFMSTSVGDRVTVSCKASQNVGTIVAWYQQKPGQSPKALIYSASYRFSGVPDRFTGSGSGTDFTLTISNVQSEDLAEYFCQQYNTYPLTFGSGTKLEIK
With B6 the binding result (VHH FC5 [6]) was “no binding”, the “ELISA signal (OD 405 nm)” value (VHH FC5 [7]) was 0.042 OD 405 nm and the Bmax [8] was 0.583 OD405 nm. For the same binder, the Kd [9] was 1.6 nM, the binding result (peptide #40a (40 aa)) was “binds” and the binding result (peptide #3 (30 aa)) was “binds”.

B7: VHH DI-B (VHH)
VHH: QVKLEESGGGLVPPGESLRLTCAATGQTASVYEMAWFRRAPEKEQVYVASINWRDGDTQYHNSVKGRFIISRDNAKNTVFLQMNSLTPEDTAIYYCAARKELAGYDYWGQGTQVTVSS
notes: From the naive LAC-M library; soluble tagged monomer in protein ELISA and patch clamp; also called clone B; not shown: 6xHis and c-Myc tags on the soluble monomer
For B7, the binding result [1] was “binds” and the “reduction” value (human Nav1.7 polypeptide) was 1.73%.

B8: anti-hNav1.7 mAb 1B6 (antibody, V domains shown)
VH: QVQLKESGPGLVAPSQSLSITCTVSGFSLSRYNVHWVRQPPGKGLEWLGMIWGGGSTDYNSALKSRLSISKDNSKSQVFLKMNSLQTDDTAMYYCARNGANWDWFAYWGQGTLVTVSA
VL: not shown
notes: also called IB6; F236-1B6
With B8 the binding result (VHH FC5 [6]) was “no binding”, the “ELISA signal (OD 405 nm)” value (VHH FC5 [7]) was 0.028 OD 405 nm and the Bmax [8] was 1.07 OD405 nm. For the same binder, the binding result (peptide #2b (20 aa)) was “no binding (tested: 1:1000 dilution)”, the binding result (peptide #2a (20 aa)) was “no binding (tested: 1:1000 dilution)” and the Kd [9] was 1.33 nM. B8: binds (peptide #40a (40 aa)); binds (peptide #2 (30 aa)); no binding (peptide #3 (30 aa)).

B9: VHH DI-A (VHH)
VHH: QVQLVESGGGLVQPGGSLRLSCAASGRTISSFTMGWFRQAPGAEREFVAAISRSGSSTVYAGSVKGRFTISRDNAKNTVYLQMNSLKPEDTAVYYCNAVITEPLYKTDDSYWGQGTQVTVSS
notes: From the naive LAC-M library; soluble tagged monomer in protein ELISA and patch clamp; also called clone A; not shown: 6xHis and c-Myc tags on the soluble monomer
B9 was tested, and the binding result [1] was “binds” and the “reduction” value (human Nav1.7 polypeptide) was 2.73%.
